According to patent publication US20240400689A1 (ANTENGENE BIOLOGICS, published 2024):

T1: human CD276 protein (human, UniProt Q5ZPR3 29-534)
T1 construct: whole, on cells; for SKOV3 and the other cancer lines the protein is the cells' own; also called B7-H3; B7H3
T1 sequence (looked up): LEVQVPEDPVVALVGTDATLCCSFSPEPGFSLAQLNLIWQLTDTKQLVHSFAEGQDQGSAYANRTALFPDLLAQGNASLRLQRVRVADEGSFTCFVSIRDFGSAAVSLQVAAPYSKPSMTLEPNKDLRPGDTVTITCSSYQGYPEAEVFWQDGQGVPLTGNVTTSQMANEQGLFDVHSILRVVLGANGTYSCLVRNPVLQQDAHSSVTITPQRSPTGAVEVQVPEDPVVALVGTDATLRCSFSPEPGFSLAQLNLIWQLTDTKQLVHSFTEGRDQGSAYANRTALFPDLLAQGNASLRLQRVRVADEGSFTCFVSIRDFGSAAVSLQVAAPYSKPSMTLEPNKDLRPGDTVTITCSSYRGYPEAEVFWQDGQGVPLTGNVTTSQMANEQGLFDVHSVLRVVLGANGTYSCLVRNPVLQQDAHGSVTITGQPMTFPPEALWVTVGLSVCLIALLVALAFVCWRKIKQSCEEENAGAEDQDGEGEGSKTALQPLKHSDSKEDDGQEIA

T2: mouse CD276 protein (mouse, UniProt Q8VE98 29-316)
T2 construct: whole, on cells; also called mCD276; CHO-S-mCD276
T2 sequence (looked up): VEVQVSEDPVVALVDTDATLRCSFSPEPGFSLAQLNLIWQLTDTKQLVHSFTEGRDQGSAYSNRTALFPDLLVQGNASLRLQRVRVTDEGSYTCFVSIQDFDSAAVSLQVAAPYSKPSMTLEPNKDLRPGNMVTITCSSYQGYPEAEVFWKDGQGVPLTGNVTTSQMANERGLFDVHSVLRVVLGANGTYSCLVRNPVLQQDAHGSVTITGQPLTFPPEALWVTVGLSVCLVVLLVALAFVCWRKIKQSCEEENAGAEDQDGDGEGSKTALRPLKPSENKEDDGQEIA


Assays:
human CD276 protein [1] = biological target: T1, human CD276 protein; test: FACS on CHO-S-hCD276 cells
Experimental: (§1) Screening & Expansion—The subcloning plates were screened by protein or cell-based Elisa, and the subclones with good binding ability were expanded to 24-wells for confirmation tests. The specificity and cross-reactivity of these subclones were confirmed with FACS analysis. Briefly, parental CHO-S cells, CHO-S-hCD276, CHO-S cell line stably over-expressing Macaca fascicularis CD276, CHO-K1 S, cell line stably over-expressing mouse CD276 were incubated with antibodies produced by each subclone respectively. Fluorescent dye-conjugated secondary antibody was used to detect the binding of the primary antibody with the cells. Median fluorescence intensity was measured by FACS analysis.

[2] = biological target: T3, Macaca fascicularis CD276 (Macaca fascicularis); test: FACS on CHO-S-cynoCD276 cells
T3 construct: whole, on cells; also called cynomolgus monkey CD276; cynoCD276
Experimental: as §1

mouse CD276 protein = biological target: T2, mouse CD276 protein; test: FACS on CHO-S-mCD276 cells
Experimental: as §1

human CD276 protein [3] = biological target: T1, human CD276 protein; test: FACS on SKOV3 cells
Text: Sequences of 31 mouse antibodies from Table 5 were selected to generate and produce human IgG1 chimeric antibodies. The binding affinity of these antibodies and bench mark antibody, Enoblituzumab (see U.S. Pat. No. 8,802,091, MGA271, specifically with a construct designated as hBRCA84D-2) and MGC018 (an antibody-drug-conjugate, in which the mAb MGA017 (human IgG1) is conjugated via a cleavable linker to the prodrug seco-DUocarmycin hydroxyBenzamide Azaindole (DUBA), an alkylating agent that can damage DNA in both dividing and non-dividing cells, thereby causing cell death) with human patient derived ovarian cancer cell line, SKOV3, was determined by FACS analysis.
1. Digested cells using Trypsin (1×); Centrifuged the harvested cells at 300 g for 3 min and discarding the supernatant. […] 2. Washed the cells 2 times with FACS buffer by centrifuging at 300 g for 3 min and discarding the supernatant. [0445] 3. […] Kept the cells in dark for FACS analysis.

FACS MFI (human CD276 protein [1])	FACS MFI [2]	FACS MFI (mouse CD276 protein)	EC50 (human CD276 protein [3]) [µg/mL]	MFI (Max) (human CD276 protein [3])	Binder
96800	146000	1360	–	–	9-B9-H11-G7 (antibody, V domains shown, mouse monoclonal antibody (hybridoma)) VH: DVQLQESGPGLVKPSQSLSLTCSVTGYSITSGYYWNWIRQFPGNKLEWMVYISYDGTNNYNPSLKNRISITRDTSKNQFFLKLNSVTTEDTATYYCARGDSNSYYFDYWGQGTTLTVSS VL: QAVVTQESALTTSPGGTVILTCRSSTGAVTTSNYANWVQEKPDHLFTGLIGGTSNRAPGVPVRFSGSLIGDKAALTITGAQTEDDAMYFCALWYRTHYVFGGGTKVTVL
53200	35700	1420	–	–	9-G12-D6-A11 (antibody, V domains shown, mouse monoclonal antibody (hybridoma)) VH: DVQLQVSGPGLVKPSQSLSLTCSVAGYSITSDYYWNWIRQFPGNKLEWMGYISYDGTNNYNPSLKNRISITRDTSKGQFFLKFNSVTTEDTATYYCARGKDGSYYFDYWGQGTTLTVSS VL: QAVVTQESALTTSPGGTVILTCRSSTGAVTTSNYANWVQEKPDHLFTGLIGGTSNRAPGVPVRFSGSLIGDKAALTITGAQTEDDAMYFCALWYRTHYVFGGGTMVTVL
88800	51100	67000	–	–	20-F8-B5-G2 (antibody, V domains shown, mouse monoclonal antibody (hybridoma)) VH: EVQLQESGPSLVKPSQTLSLTCSVTGDSITSAYWNWIRKFPGNKLEYMGYISNSGSTYYNPSLKSRISITRDTSKNQYYLQLNSVTTEDTGTYYCVRGERYYGYGAYWGQGTLVTVSA VL: DIVMTQATPSVPVTPGESISISCRSSKSLLHSNGNTYLYWFLQRPGQSPQLLIYRMSNLASGVPDRFSGSGSGTAFTLRISRVEAEDVGVYYCMQHLEYPFTFGAGTKLELK
63900	12100	1320	–	–	8-C3-E3-F3 (antibody, V domains shown, mouse monoclonal antibody (hybridoma)) VH: EVQLVESGGGLVQPGGSLKLSCAASGFTFSNYGLSWVRLTPDKRLEVVATIGSYGGNTYYPDSVKGRFTISRDNAKNTLYLQMSSLKSEDTAIYYCARDIYYGNSEAWFAYWGQGTLVTVSA VL: DIVMTQAAFSNPVTLGTSASISCRSSKSLLHSNGITYLYWYLQKPGQSPQLLIYQMSNLASGVPDRFSSSGSETDFTLRISRVEAEDVGVYYCAQNLELPWTFGGGTKLEIK
40400	58600	7370	–	–	8-B4-F5-E11 (antibody, V domains shown, mouse monoclonal antibody (hybridoma)) VH: QVQLQQPGAELVKPGASVKLSCKASGDTFTSYWMHWVKQRPGQGLEWIGMIHPDSGTRNYNEKVMSKATLNVDKSSSTAYLHLSSLTSEDSAVYYCSRSYGSRLAWFAYWGQGTLVTVSA VL: QAVVTQESALTTSPGETVTLTCRSSTGAVTTSNFANWVQEKPDHLFTGLIGGTNNRAPGVPARFSGSLIGDKAALTITGAQTEDEAVYFCALWYTNHFIFGSGTKVTVL
149000	16800	1370	–	–	13-E4-G9-A4 (antibody, V domains shown, mouse monoclonal antibody (hybridoma)) VH: EVMLVESGGGLVKPGGSLKFSCAASGFTFITYAMSWVRQTPEKRLEWVATISGGGIDTYYPDSVKGRFTISRDNAKNTLYLQVNSLRSEDTAMYYCTRQGSQGWGAMDYWGQGTSVTVSS VL: QIVLTQSPPIMSASPGERVTMTCRASSRVSFMHWYQQKSGTSPRRWIYETSKLASGVPDRFSGSVSGTSYSLTISSMEAEDAATYYCQQWSSNPLTFGAGTKLELK
148000	39100	1160	–	–	25-C8-D7-C5 (antibody, V domains shown, mouse monoclonal antibody (hybridoma)) VH: EVQLQESGGGLVKPGGSLKFSCAASGFTFSTYAMSWVRQTPEKRLEWVATISGGGIDTYYPDSVKGRFTISRDNAKNTLYLQMNSLRSEDTAMYYCARQGSKGWGAMDYWGQGTSVTVSS VL: QIVLTQSPAIMSASPGEKVTMTCRASSSVSFMHWYQQKSGTSPKRWIYETSKLASGVPDRFSGSGSGTSYSLTISSMEAEDAATYYCQQWSSNPLTFGAGTKLELK
47000	35100	1300	–	–	30-E2-G7-G7 (antibody, V domains shown, mouse monoclonal antibody (hybridoma)) VH: EVQLQESGGGLVKPGGSLKLSCAASGFTFSYYAMSWVRQTPEKRLEWVATINGDGSHTYYPDSVRGRFTISRDNAKNTLYLQVSSLRSEDTAMYYCASLLQLGPFWGQGTTLTVSS VL: DIVMTQSQKFMSTSVGDRVSVTCKASQNVGTNVAWYHQRPGQSPKPLIYSASYRYSGVPDRFTGSGSGTDFTLTISNVQSEDLAEYFCQQYNNYPLTFGSGTKLEIK
138000	96300	8220	–	–	30-C7-C11-D4 (antibody, V domains shown, mouse monoclonal antibody (hybridoma)) VH: EVQLVESGPGLVKPSQSLSLTCTVTGYSITSDYAWNWIRQFPGNKLEWMGYISHSGSTSYNPSLKSRISITRDTSKNQFFLQLNSVTTEDTATYYCARSLGRRWYFDVWGAGTTVTVSS VL: DIVMTQSPSSLAMSVGQKVTLSCKSSQSLLNSSTQKNYLAWYQQKPGQSPKLLVYFASTRDSGVPDRFIGSGSGTEFTLTISSVQAEDLADYFCQQHYIIPFTFGAGTKLEIK
400000	10100	–	–	–	10-B9-D10-A12 (antibody, V domains shown, mouse monoclonal antibody (hybridoma)) VH: EVQLQESGPELVRPGVSVKISCKGSGYTFTDYTMHWVKLSHAKSLEWIGVISTYYGNTNYNQKFKGKATLTVDKSSSTAYMELARLTSEDSAIYYCARASYGSGYGPYYWYFDVWGAGTTVTVSS VL: DIQMTQSPASLFASVGETVTITCRASEKIYSYLAWYFQKQGKSPQFLVYNANALAEGVPSRFSGSGSGTQFSLKINSLQPEDFGTYYCQHHYGTPVTFGAGSKLELK
62500	99400	6610	–	–	15-G1-D1-E3 (antibody, V domains shown, mouse monoclonal antibody (hybridoma)) VH: QVQLQQPGAELVKPGTSVKLSCKASGYTFTSYWIHWVKQRPGQGLEWIGMIHPKSGTVDYNEKFKSKATLTADKSSNTAYMQLSSLTSEASVVYYCARGENYDYRPQFVYWGQGTLVTVSA VL: QLVLTQSSSASFSLGASAKLTCTLSSQHSTYTIEWYQQQPLKPPKYVMELKKDGSHRTGDGIPDRFSGSSSGADRYLSISNIQPEDEAIYICGVGDTIKEQFVYVFGGGTKVTVL
–	–	–	1.78	200	6-H11-G5-D8 (human IgG1 chimeric antibody) (antibody, V domains shown, human IgG1 chimeric antibody of the mouse clone) VH: EVQLQESGPELVKPGTSVKLSCKASGYTFTSYDINWVRQRPEQGLEWIGWIFPGNGDTYYNEKFKGKATLTSDKSSSTAYMQLSRLTSEDSAVYFCARDLRLGTFDYWGQGTTLTVSS VL: QIVLTQSPEIMSASPGEKVTMTCSASSSVSYIHWYQQKSGTSPKRWIYDTSKLASGVPARFSGSGSGTSYSLTIRSMEAEDAATYYCQQGSSNPRTFGGGTKLELK
77000	13200	1340	–	–	20-C5-D7-D3 (antibody, V domains shown, mouse monoclonal antibody (hybridoma)) VH: EVQLVESGGDLVKPGGSLKLSCAASGFTFRSYGMSWVRQTPDKRLEWVATISGGGNYTYYPDSVKGRFTISRDNAKNTLYLQMSSLKSEDTAMYYCARHEGLPLDYWGQGTTLTVSS VL: DIQMTQSPASLSASVGETVTITCRASENIYSYLAWYQQKQGKSPQLLVYNAKTLAEGVPSRFSGSGSGTQFSLKINSLQPEDFGNFYCQHHYGTPTWTFGGGTKLEIK
5650	4320	17400	–	–	10-G6-C4-B2 (antibody, V domains shown, mouse monoclonal antibody (hybridoma)) VH: EVQLVESGGGLVQPGGSLRLSCATSGFTLSDYYMSWVRQPPGKAPEWLGFMRNKANGYTTEYSASVRGRFTISRDTSQSIIYLQMNTLRAEDGATYYCVRDRDGRPFAYWGQGTLVTVSA VL: DIVMTQSPSSLTVTAGEKVTMSCKSSQSLLNSINQKNFLTWYQQKPGQPPKLLIYWASTRESGVPDRFTGSGSGTDFTLTISSVQAEDLAIYYCQNDYTYPLTFGTGTKLELK
